Results: patent US20110250670A1, “LIGHT ENERGY-INDUCED STABILITY OF BIOMATERIALS” (University of Calcutta, priority 2010, published 2011)

How the values were obtained:
Type in all cases: physicochemical
[1] = Dithiothreitol induced aggregation of insulin (absorption at 360 nm); settings: 0.1 mg/ml, DTT 20 mM, 40° C., He-Ne laser 632.8 nm, 0.63 watts/cm^2
Source text: (§1) In this Example, the effects of light energy on the aggregation of a labile biomolecule in aqueous solution were examined. The device included a heating element and a laser, as depicted in FIG. 2. The laser operated at 632.8 nm, in the red portion of the spectrum, with a power density of 0.63 watts/cm^2. The 180 degree scattering at 360 nm (in terms of OD at 360 nm) was taken to measure the extent of aggregation because it is well-known that this scattering is a measure of the propensity of a protein to form aggregate. Aggregation of proteins of the reference samples was taken as 100% and the aggregation of laser-treated proteins in the test samples was calculated relative to the 100% aggregation of the reference samples.
Dithiothreitol induced aggregation of insulin. Insulin was purchased from ICN and a stock solution of insulin (0.5 mg/ml) was prepared by mixing with 100 mM phosphate buffer of pH 7.2. Disulphide linkages of insulin (0.1 mg/ml) were reduced by dithiothreitol (DTT, 20 mM), which leads aggregation of insulin at 40° C. This aggregation of protein was measured by absorption at 360 nm after heat treatment at 40° C. in a Perkin Elmer spectrophotometer. Aggregation of insulin was measured in the presence and in the absence of laser light. Test samples were irradiated with a He—Ne laser having power density is 0.63 watts/cm^2 and operating at a wavelength 632.8 nm. […]

[2] = Thermal aggregation of hemoglobin (absorption/scattering at 360 nm); settings: 0.1 mg/ml, 60° C., 20 min, He-Ne laser 632.8 nm, 0.63 watts/cm^2
Source text: as §1
Thermal aggregation of hemoglobin. Hemoglobin was purchased from Sigma-Aldrich (St. Louis, Mo.) and a 0.5 mg/ml stock solution was prepared by mixing with 100 mM phosphate buffer solution of pH 7.2. The aggregation of a 0.1 mg/ml hemoglobin solution was observed by measuring the absorption of radiation of 360 nm wavelength with a time duration of 20 min in a Perkin Elmer spectrophotometer at 60° C. Test samples were irradiated with He—Ne laser having power density is 0.63 watts/cm^2 and operating at a wavelength 632.8 nm. A control sample was subjected to identical conditions expect laser irradiation was not performed. […]

[3] = Dynamic light scattering of hemoglobin; settings: heated at 60° C. for 20 min without red laser light
Method: FIG. 4 represents the dynamic light scattering pattern of protein hemoglobin in the presence and absence of red laser light at 60° C. The hydrodynamic diameter of hemoglobin at 25° C. is 5.6 nm. When this protein solution was heated at 60° C. without red laser light for 20 min, the hydrodynamic diameter increases to 4801.0 nm. However, in the presence of red laser light the diameter increases to only 255.0 nm.

[4] = Thermal aggregation of citrate synthase (OD at 360 nm); settings: for change in aggregation upon laser exposure: FIG. 5
Source text: as §1
Thermal Aggregation of Citrate Synthase. Citrate synthase was purchased from Sigma-Aldrich and a 0.5 mg/ml stock solution was prepared by mixing with 100 mM phosphate buffer solution of pH 7.2. Citrate synthase was readily converted to its aggregated state from a native state at 45° C. The aggregation profile of the protein (0.1 mg/ml) was measured by measuring optical density (OD) at 360 nm in a Perkin Elmer spectrophotometer in 100 mM phosphate buffer of pH 7.2. Test samples were irradiated with a He—Ne laser having power density is 0.63 Watt/cm^2 and operating at a wavelength 632.8 nm. A control sample was subjected to identical conditions expect that laser irradiation was not performed. The results are shown in FIG. 3 and indicate that irradiation with laser light reduced the formation of protein aggregates by about 40% compared to an non-irradiated control sample.
A comparative study showing the effect of the power of the red laser on the aggregation of citrate synthase was conducted. Thermal aggregation of citrate synthase was determined by measuring absorption of radiation of 360 nm wavelength at 45° C. Aggregation of control samples (in absence of laser treatment) was considered as 100% aggregation while aggregation of the treated protein of the test samples was calculated relative to the 100% aggregation of the control samples. […] Thus, increasing the energy input to the test samples beyond that needed to increase the activation energy for unfolding the protein appears to generate heat energy that increases aggregation. As such, suitable methods for preventing protein aggregation use a low-power red laser.

Molecule: insulin
- reduction of formation of insulin aggregates compared to non-irradiated control [1]: about 10%

Molecule: hemoglobin
- reduction of formation of hemoglobin aggregates compared to non-irradiated control [2]: about 25%
- hydrodynamic diameter [3]: 4801.0 nm

B1: citrate synthase (protein, UniProt P00889 28-464, looked up)
Citrate synthase, …: ASSTNLKDILADLIPKEQARIKTFRQQHGNTVVGQITVDMMYGGMRGMKGLVYETSVLDPDEGIRFRGYSIPECQKMLPKAKGGEEPLPEGLFWLLVTGQIPTEEQVSWLSKEWAKRAALPSHVVTMLDNFPTNLHPMSQLSAAITALNSESNFARAYAEGIHRTKYWELIYEDCMDLIAKLPCVAAKIYRNLYREGSSIGAIDSKLDWSHNFTNMLGYTDAQFTELMRLYLTIHSDHEGGNVSAHTSHLVGSALSDPYLSFAAAMNGLAGPLHGLANQEVLVWLTQLQKEVGKDVSDEKLRDYIWNTLNSGRVVPGYGHAVLRKTDPRYTCQREFALKHLPHDPMFKLVAQLYKIVPNVLLEQGKAKNPWPNVDAHSGVLLQYYGMTEMNYYTVLFGVSRALGVLAQLIWSRALGFPLERPKSMSTDGLIKLVDSK
notes: a beta sheet-rich enzyme which readily aggregates by thermal treatment at 45° C; purchased from Sigma-Aldrich
- reduction of formation of protein aggregates compared to non-irradiated control ([4]; 0.1 mg/ml, 45° C., He-Ne laser 632.8 nm, 0.63 Watt/cm^2): about 40%
- aggregation relative to control samples (100%) ([4]; 45° C., red laser 15 mW, 1.9 watts/cm^2): approximately 145%
- aggregation relative to control samples (100%) ([4]; 45° C., red laser 632.8 nm, 5 mW, 0.63 watts/cm^2): 60%
- change in aggregation upon laser exposure ([4]; high power (15 mW) red laser): increase in aggregation
- change in aggregation upon laser exposure ([4]; low power (5 mW) red laser): decrease in the aggregation
